Data published in article PMC4588518.

Molecular target: LegK4^1–445 (Legionella pneumophila LegK4, residues 1 to 445) (Legionella pneumophila)
Experiment: SEC-SAXS

Substance: LegK4^1–445 (Legionella pneumophila LegK4, residues 1 to 445) (domain or fragment)
- stoichiometry N: 2
